From paper PMC11077067, “Protein G-quadruplex interactions and their effects on phase transitions and protein aggregation” come the findings set out here.

Series [1] has as its target T1, Znf706 (Homo sapiens, UniProt Q9Y5V0 1-76).
T1 sequence: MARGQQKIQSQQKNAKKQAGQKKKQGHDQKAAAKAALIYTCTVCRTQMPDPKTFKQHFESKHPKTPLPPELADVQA
In words: MST; range over all G4s; less strong; exact value in figure; FP/anisotropy: 20 mM NaPi, 100 mM KCl, 0.05% NaN3, pH 7.4, 25 C (LiCl variant: 20 mM Tris-HCl, 100 mM LiCl, pH 7.4; NaCl variant: 20 mM NaPi, 100 mM NaCl, pH 7.4); NMR: 20 mM NaPi, 100 mM KCl, 7.5% D2O, pH 7.4, 4-50 C. Conditions: protein: recombinant; tags: none (His6-SUMO cleaved); chain copies: 2; label: 5' 6-FAM; hybrid G4.

The next series has as its target T2, Znf706 A2C-AF488 (Homo sapiens, UniProt Q9Y5V0 1-76, A2C).
T2 sequence: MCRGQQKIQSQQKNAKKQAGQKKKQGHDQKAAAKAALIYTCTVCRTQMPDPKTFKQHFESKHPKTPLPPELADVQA
Put plainly: fluorescence anisotropy; FP/anisotropy: 20 mM NaPi, 100 mM KCl, 0.05% NaN3, pH 7.4, 25 C (LiCl variant: 20 mM Tris-HCl, 100 mM LiCl, pH 7.4; NaCl variant: 20 mM NaPi, 100 mM NaCl, pH 7.4); NMR: 20 mM NaPi, 100 mM KCl, 7.5% D2O, pH 7.4, 4-50 C. Conditions: protein: recombinant, tags: none (His6-SUMO cleaved), AF488 label.

Series [2] has as its target T1, Znf706. In words: fluorescence polarization; 100 mM KCl; range over all G4s; strong; exact value in figure; FP/anisotropy: 20 mM NaPi, 100 mM KCl, 0.05% NaN3, pH 7.4, 25 C (LiCl variant: 20 mM Tris-HCl, 100 mM LiCl, pH 7.4; NaCl variant: 20 mM NaPi, 100 mM NaCl, pH 7.4); NMR: 20 mM NaPi, 100 mM KCl, 7.5% D2O, pH 7.4, 4-50 C. Conditions: protein: recombinant; tags: none (His6-SUMO cleaved); chain copies: 2; label: 5' 6-FAM; parallel G4.

Series [3] has as its target T3, Znf706 N-terminal peptide (Homo sapiens, UniProt Q9Y5V0 1-35).
T3 chain: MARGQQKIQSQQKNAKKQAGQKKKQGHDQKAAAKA
Put plainly: fluorescence polarization; 100 mM KCl; range over three G4s; FP/anisotropy: 20 mM NaPi, 100 mM KCl, 0.05% NaN3, pH 7.4, 25 C (LiCl variant: 20 mM Tris-HCl, 100 mM LiCl, pH 7.4; NaCl variant: 20 mM NaPi, 100 mM NaCl, pH 7.4); NMR: 20 mM NaPi, 100 mM KCl, 7.5% D2O, pH 7.4, 4-50 C. Conditions: label: 5' 6-FAM.

Series [4] addresses T1, Znf706. Put plainly: MST; range over all G4s; strong; exact value in figure; FP/anisotropy: 20 mM NaPi, 100 mM KCl, 0.05% NaN3, pH 7.4, 25 C (LiCl variant: 20 mM Tris-HCl, 100 mM LiCl, pH 7.4; NaCl variant: 20 mM NaPi, 100 mM NaCl, pH 7.4); NMR: 20 mM NaPi, 100 mM KCl, 7.5% D2O, pH 7.4, 4-50 C. Conditions: protein: recombinant; tags: none (His6-SUMO cleaved); chain copies: 2; label: 5' 6-FAM; parallel G4.

Series [5] concerns the target T1, Znf706. Put plainly: fluorescence polarization; 100 mM KCl; range over all G4s; less strong; exact value in figure; FP/anisotropy: 20 mM NaPi, 100 mM KCl, 0.05% NaN3, pH 7.4, 25 C (LiCl variant: 20 mM Tris-HCl, 100 mM LiCl, pH 7.4; NaCl variant: 20 mM NaPi, 100 mM NaCl, pH 7.4); NMR: 20 mM NaPi, 100 mM KCl, 7.5% D2O, pH 7.4, 4-50 C. The note with it: protein: recombinant; tags: none (His6-SUMO cleaved); chain copies: 2; label: 5' 6-FAM; hybrid G4.

The target of series [6] is T1, Znf706. Put plainly: NMR; competitive titration with Bcl2SH G4; FP/anisotropy: 20 mM NaPi, 100 mM KCl, 0.05% NaN3, pH 7.4, 25 C (LiCl variant: 20 mM Tris-HCl, 100 mM LiCl, pH 7.4; NaCl variant: 20 mM NaPi, 100 mM NaCl, pH 7.4); NMR: 20 mM NaPi, 100 mM KCl, 7.5% D2O, pH 7.4, 4-50 C. The note with it: protein: recombinant; tags: none (His6-SUMO cleaved); chain copies: 2; blunt.

Another series has as its target T4, Znf706 A2C-MTSL (Homo sapiens, UniProt Q9Y5V0 1-76, A2C).
T4 sequence: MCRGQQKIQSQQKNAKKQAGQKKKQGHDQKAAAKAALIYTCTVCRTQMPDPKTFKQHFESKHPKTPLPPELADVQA
In words: PRE NMR; 2:1 protein:DNA, 100 mM KCl, 4 C; FP/anisotropy: 20 mM NaPi, 100 mM KCl, 0.05% NaN3, pH 7.4, 25 C (LiCl variant: 20 mM Tris-HCl, 100 mM LiCl, pH 7.4; NaCl variant: 20 mM NaPi, 100 mM NaCl, pH 7.4); NMR: 20 mM NaPi, 100 mM KCl, 7.5% D2O, pH 7.4, 4-50 C. The note with it: protein: recombinant; tags: none (His6-SUMO cleaved); MTSL spin label; parallel G4.

Series [7] has as its target T1, Znf706. In words: NMR; 37 C; FP/anisotropy: 20 mM NaPi, 100 mM KCl, 0.05% NaN3, pH 7.4, 25 C (LiCl variant: 20 mM Tris-HCl, 100 mM LiCl, pH 7.4; NaCl variant: 20 mM NaPi, 100 mM NaCl, pH 7.4); NMR: 20 mM NaPi, 100 mM KCl, 7.5% D2O, pH 7.4, 4-50 C. The note with it: protein: recombinant; tags: none (His6-SUMO cleaved); chain copies: 2; hairpin.
Series [8] addresses T1, Znf706. In words: NMR; 100 mM KCl; FP/anisotropy: 20 mM NaPi, 100 mM KCl, 0.05% NaN3, pH 7.4, 25 C (LiCl variant: 20 mM Tris-HCl, 100 mM LiCl, pH 7.4; NaCl variant: 20 mM NaPi, 100 mM NaCl, pH 7.4); NMR: 20 mM NaPi, 100 mM KCl, 7.5% D2O, pH 7.4, 4-50 C. The note with it: protein: recombinant; tags: none (His6-SUMO cleaved); chain copies: 2; hairpin.
In series [9] the target is T1, Znf706. In words: MST; range over all G4s; weakest; exact value in figure; FP/anisotropy: 20 mM NaPi, 100 mM KCl, 0.05% NaN3, pH 7.4, 25 C (LiCl variant: 20 mM Tris-HCl, 100 mM LiCl, pH 7.4; NaCl variant: 20 mM NaPi, 100 mM NaCl, pH 7.4); NMR: 20 mM NaPi, 100 mM KCl, 7.5% D2O, pH 7.4, 4-50 C. Conditions: protein: recombinant; tags: none (His6-SUMO cleaved); chain copies: 2; label: 5' 6-FAM.

For the molecule TTGGGTTAGGGTTAGGGTTAGGGA (structured_DNA) [hTel, 6-FAM], the Kd with Znf706 [1] was roughly 4.47 µM. Consider GGGGCCGGGGCCGGGGCCGGGGCC (structured_DNA) [G4C2 4-repeat], for which the binding result with Znf706 A2C-AF488 is “binds”. Consider TAGGGAGGGTAGGGAGGGT (structured_DNA) [cMyc (Pu19_A2A11), 6-FAM], for which the Kd is roughly 4.47 µM with Znf706 [2] and roughly 17.2 µM in series [3] (parallel G4). Take UAGGGUUAGGGUUAGGGUUAGGG (structured_RNA) [TERRA, 6-FAM]: the Kd with Znf706 [4] is roughly 4.47 µM. Turning to AGGAGGGGGGCGGGA (structured_DNA) [Bcl2SH, 6-FAM], the Kd in the series with Znf706 [2] is roughly 4.47 µM; in [3] (parallel G4), roughly 17.2 µM. As for GGGCGCGGGAGGAAGGGGGCGGG (structured_DNA) [Bcl2WT, 6-FAM], the equilibrium dissociation constant (Kd) with Znf706 [5] was roughly 4.47 µM; in series [3] (hybrid G4) it was roughly 17.2 µM.

B1: Bcl2SH duplex (dsDNA)
DNA 1: AGGAGGGGGGCGGGA
DNA 2: TCCCGCCCCCCTCCT
As for B1, the binding result with Znf706 [6] is “no binding”. As to TAGGGAGGGTAGGGAGGGT (structured_DNA) [cMyc (Pu19_A2A11)], the binding result in the series with Znf706 A2C-MTSL and in the series with Znf706 A2C-AF488 (parallel G4) was “binds” throughout. On to GGTTGGGGTTGTTTTCAACCCCAACC (structured_DNA) [GGGG hairpin], for which the binding result with Znf706 [7] was “no binding”. With GGAAGGAAGGTTTTCCTTCCTTCC (structured_DNA) [GGA hairpin], the binding result in the series with Znf706 [8] is recorded as “no binding”. On to GGCGAGGAGGGGCGTGGCCGGC (structured_DNA) [Kit*, 6-FAM], for which, in the series with Znf706 [9], the Kd is roughly 4.47 µM.
